Measurements: patent US20250092426, “CAS ENDONUCLEASES AND RELATED METHODS” (Flagship Pioneering Innovations VII, LLC, published 2025)

Target: T1, CasEnd-22 (synthetic construct)
T1 chain: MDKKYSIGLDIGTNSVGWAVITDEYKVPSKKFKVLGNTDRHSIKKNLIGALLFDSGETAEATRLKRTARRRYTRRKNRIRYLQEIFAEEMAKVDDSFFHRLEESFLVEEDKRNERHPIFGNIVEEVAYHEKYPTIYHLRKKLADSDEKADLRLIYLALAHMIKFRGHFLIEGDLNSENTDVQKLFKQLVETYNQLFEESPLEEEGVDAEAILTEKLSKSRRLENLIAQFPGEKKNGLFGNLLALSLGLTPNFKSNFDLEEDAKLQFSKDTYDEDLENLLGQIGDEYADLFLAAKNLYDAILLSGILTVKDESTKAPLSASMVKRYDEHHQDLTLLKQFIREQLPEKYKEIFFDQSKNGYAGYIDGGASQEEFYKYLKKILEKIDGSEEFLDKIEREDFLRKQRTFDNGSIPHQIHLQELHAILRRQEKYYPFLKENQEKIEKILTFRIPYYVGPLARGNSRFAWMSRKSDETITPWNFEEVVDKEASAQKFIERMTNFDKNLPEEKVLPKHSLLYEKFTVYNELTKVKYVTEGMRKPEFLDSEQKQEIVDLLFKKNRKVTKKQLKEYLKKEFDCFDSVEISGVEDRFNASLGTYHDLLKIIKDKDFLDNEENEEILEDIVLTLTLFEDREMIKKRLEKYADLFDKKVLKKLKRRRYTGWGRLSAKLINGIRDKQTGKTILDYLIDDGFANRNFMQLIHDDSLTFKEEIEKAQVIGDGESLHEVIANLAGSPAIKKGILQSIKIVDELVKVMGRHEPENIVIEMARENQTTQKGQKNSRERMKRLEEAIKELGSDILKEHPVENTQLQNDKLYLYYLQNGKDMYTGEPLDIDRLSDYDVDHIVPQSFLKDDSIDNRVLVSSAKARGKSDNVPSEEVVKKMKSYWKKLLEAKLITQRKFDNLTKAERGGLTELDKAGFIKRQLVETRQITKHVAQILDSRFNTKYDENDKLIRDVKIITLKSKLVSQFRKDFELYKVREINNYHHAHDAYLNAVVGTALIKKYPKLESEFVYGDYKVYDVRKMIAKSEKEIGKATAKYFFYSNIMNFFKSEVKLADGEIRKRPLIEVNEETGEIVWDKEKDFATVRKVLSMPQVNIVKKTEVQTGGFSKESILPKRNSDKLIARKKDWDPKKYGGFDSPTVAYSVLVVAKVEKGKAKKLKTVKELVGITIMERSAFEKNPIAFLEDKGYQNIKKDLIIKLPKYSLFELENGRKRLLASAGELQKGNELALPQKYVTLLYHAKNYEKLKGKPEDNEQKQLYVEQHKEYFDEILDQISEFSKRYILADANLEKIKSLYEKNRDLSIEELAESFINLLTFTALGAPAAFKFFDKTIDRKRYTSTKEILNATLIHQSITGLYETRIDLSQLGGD
Test: cell_activity; +++; K562, second nick guide SEQ 380; PAM not stated
Description: The ability of the candidate endonucleases, including endonucleases 1-38 (CasEnds 1-38) (set forth in Table 1 and SEQ ID NOS: 1-38, respectively), to mediate target nucleic acid editing in cells was assessed by amplicon sequencing of the endogenous hemoglobin subunit beta (eHBB) gene, wherein the percent of amplicons displaying the intended edit is measured. The editing system is comprised of a template RNA (designed to introduce the Single Nucleotide Polymorphism), a second nick guide RNA, and a fusion protein consisting of retroviral reverse transcriptase and the individual subject Cas endonuclease.
Briefly, 250 ng of plasmid DNA encoding the subject fusion protein (containing one of the subject CasEnds), 250 ng each of plasmid DNA encoding the template RNA and the second nick guide RNA were added to 15 μL Lonza SF buffer containing 250,000 K562 cells. Nucleofection was mediated utilizing program FF-120-DA on a Lonza nucleofector. The day of nucleofection was marked as day 0. At day 3, the cells were harvested and subjected to lysis buffer treatment overnight. Genomic DNA was extracted and used for targeted amplicon sequencing to evaluate the performance of each Cas endonucleases based on their percent edit efficiencies.

B1: HBB template RNA ; HBB protospacer (ssRNA ; dsDNA)
RNA: CAUGGUGCACCUGACUCCUGGUUUUAGAGCUAGAAAUAGCAAGUUAAAAUAAGGCUAGUCCGUUAUCAACUUGAAAAAGUGGCACCGAGUCGGUGCACGGCAGACUUCUCUGCCGGAGUCAGGUGC
DNA 1: CATGGTGCACCTGACTCCTG
DNA 2: CAGGAGTCAGGTGCACCATG
activity: ≥ 100 % of reference
